Experimental findings from US6878520 (MERCK, dated 2005) are described below.

Test [1] deals with T1, human melanocortin-4 receptor (human, UniProt P32245 1-332).
T1 construct: whole, on cells; Assayed as membranes prepared from stably expressing cells; also called hMC4R; MC4R
The test is described as follows: inhibition of 125I-NDP-α-MSH binding to membranes of cells expressing human MC4R. On the procedure: (§1) Binding assays were done in the same manner as described in Fong et al., 1997, Biochem. Biophys. Res. Comm. 237:629–631. Binding assays were carried out using membranes prepared from L cells or CHO cells stably expressing human MC3R, MC4R or MC5R. […] The above mixture in binding buffer (50 mM Tris, 2 mM CaCl_2, 1 mM MgCl_2, 5 mM KCl, pH 7.2) was incubated at room temperature for 2 hours, followed by filtration through GFC paper. The bound ligand was quantitated in a γ counter. IC$50$ values were calculated as previously described (Fong et al., 1996, Mol. Pharmacol. 50:1605–1611).

The target in test [2] is T2, human melanocortin-3 receptor (human, UniProt P41968 1-323).
T2 construct: whole, on cells; Assayed as membranes prepared from stably expressing cells; also called hMC3R; MC3R
T2 sequence (P41968 whole entry): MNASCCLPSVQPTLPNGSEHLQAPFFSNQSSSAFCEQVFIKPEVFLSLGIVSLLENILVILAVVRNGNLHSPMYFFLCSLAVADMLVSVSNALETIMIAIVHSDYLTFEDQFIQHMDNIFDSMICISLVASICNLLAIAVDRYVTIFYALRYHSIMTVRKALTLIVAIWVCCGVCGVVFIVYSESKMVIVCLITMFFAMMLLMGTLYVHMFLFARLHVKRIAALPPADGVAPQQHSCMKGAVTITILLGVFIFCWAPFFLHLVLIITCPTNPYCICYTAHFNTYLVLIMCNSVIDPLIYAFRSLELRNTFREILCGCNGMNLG
The test is described as follows: inhibition of 125I-NDP-α-MSH binding to membranes of cells expressing human MC3R. The method, then: as §1

T1 sequence (P32245 whole entry): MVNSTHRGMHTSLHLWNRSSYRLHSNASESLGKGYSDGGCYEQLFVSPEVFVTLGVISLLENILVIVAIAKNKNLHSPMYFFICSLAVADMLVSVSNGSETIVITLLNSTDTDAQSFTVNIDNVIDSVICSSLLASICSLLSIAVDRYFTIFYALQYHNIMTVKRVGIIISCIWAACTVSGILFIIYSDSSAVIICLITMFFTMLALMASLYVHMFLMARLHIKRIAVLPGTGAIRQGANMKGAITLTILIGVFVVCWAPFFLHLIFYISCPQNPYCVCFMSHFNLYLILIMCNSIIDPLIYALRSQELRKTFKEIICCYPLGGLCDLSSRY

B1: c-ART-b (ligand)
chain: AQMGLALQDREPRSSRRCVRLHESCLGQQVPCCDPCATCYCRFFNAFCYCRKLGTAMNPCSRTLVPRGSGSELGTKLGPEQKLISEEDLNSAVDHHHHHH
notes: Secreted into the culture medium of transfected COS-7 cells and used as concentrated medium; also called ART polypeptide
What is called IC50 is the concentration at which inhibition is half-maximal. High values mean lower potency, low ones higher potency. Take B1: the IC50 in test [1] came to 1.4 nM; in test [2], 1.9 nM.

B2: full-length human ART protein (ligand)
chain: AQMGLAPMEGIRRPDQALLPELPGLGLRAPLKKTNAEQAEEDLLQEAQALAEVLDLQDREPRSSRRCVRLHESCLGQQVPCCDPCATCYCRFFNAFCYCRKLGTAMNPCSRTLVPRGSGSELGTKLGPEQKLISEEDLNSAVDHHHHHH
notes: also called full length ART; full-length ART protein
Turning to B2, the IC50 in test [1] was determined as 0.5 nM; in test [2] it was 1 nM.
